From patent US11266675

Target: Heat shock cognate protein 70 (Hsc70) (UniProt P11142)
Sequence (P11142 2-646): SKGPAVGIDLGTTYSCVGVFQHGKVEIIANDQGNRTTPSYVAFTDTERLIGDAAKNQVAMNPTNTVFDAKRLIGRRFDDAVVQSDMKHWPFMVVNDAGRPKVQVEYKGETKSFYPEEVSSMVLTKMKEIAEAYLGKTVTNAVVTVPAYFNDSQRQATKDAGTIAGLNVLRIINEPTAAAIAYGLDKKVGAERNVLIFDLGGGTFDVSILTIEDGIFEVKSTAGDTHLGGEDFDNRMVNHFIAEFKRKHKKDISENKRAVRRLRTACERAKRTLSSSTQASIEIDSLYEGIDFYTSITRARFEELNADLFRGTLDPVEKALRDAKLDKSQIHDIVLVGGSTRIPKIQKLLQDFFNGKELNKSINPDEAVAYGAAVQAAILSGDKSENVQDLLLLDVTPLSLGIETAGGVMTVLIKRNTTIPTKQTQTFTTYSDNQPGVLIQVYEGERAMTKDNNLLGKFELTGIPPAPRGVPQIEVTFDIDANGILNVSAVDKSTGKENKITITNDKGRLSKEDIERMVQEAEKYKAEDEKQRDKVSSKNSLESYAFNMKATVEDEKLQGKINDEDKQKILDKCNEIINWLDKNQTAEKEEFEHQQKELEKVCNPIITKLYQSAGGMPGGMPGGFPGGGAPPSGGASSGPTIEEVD

Substance: recombinant His-tagged 2A^pro (2A protease of EV-A71)
- cleavage of eIF4G by recombinant 2A^pro in vitro (immunoblot): the cleaved eIF4G was up-regulated in Hsc70 overexpressed cells, indicating an increase of 2A^pro proteolytic activity upon increased Hsc70 level
